# Molecular target: recombinant Fcγ-receptor 3a protein, high affinity V158 allotype (UniProt P08637)
# Experiment: surface plasmon resonance, KD from ka and kd
# Sequence of recombinant Fcγ-receptor 3a protein, high affinity V158 allotype (P08637 17-208 F176V): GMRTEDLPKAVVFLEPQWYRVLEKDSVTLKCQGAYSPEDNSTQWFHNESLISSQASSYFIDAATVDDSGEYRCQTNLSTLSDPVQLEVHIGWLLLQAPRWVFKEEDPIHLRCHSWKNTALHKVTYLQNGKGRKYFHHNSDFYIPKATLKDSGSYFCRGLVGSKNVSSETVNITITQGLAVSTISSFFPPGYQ
substance,measurement,value
non Fc-engineered IgG1 reference antibody,Kd,379 nM

# Reference: US20150266967A1
